Measurements: article doi:10.1101/2022.08.24.505195 (bioRxiv, 2022)

Target: the molecule itself
Assay: SEC

B1: EBOV VP40 with 6xHis tag (pET46-VP40-6xHis), recombinant dimer (natural protein)
chain: MRRVILPTAPPEYMEAIYPVRSNSTIARGGNSNTGFLTPESVNGDTPSNPLRPIADDTIDHASHTPGSVSSAFILEAMVNVISGPKVLMKQIPIWLPLGVADQKTYSFDSTTAAIMLASYTITHFGKATNPLVRVNRLGPGIPDHPLRLLRIGNQAFLQEFVLPPVQLPQYFTFDLTALKLITQPLPAATWTDDTPTGSNGALRPGISFHPKLRPILLPNKSGKKGNSADLTSPEKIQAIMTSLQDFKIVPIDPTKNIMGIEVPETLVHKLTGKKVTSKNGQPIIPVLLPKYIGLDPVAPGDLTMVITQDCDTCHSPASLPAVIEK
  stoichiometry N: 2
